Source: patent EP3801029B1 (Morehouse School of Medicine, dated 2024)

B1: synthetic HIV-1 Nef SMRmut peptide (AGFPVAAAGFPVDYKDDDDK) (peptide)
peptide: AGFPVAAAGFPVDYKDDDDK
notes: also called negative control peptide; mutant SMR peptide

Columns and labels:
Mortalin [1] = biological target: T1, Mortalin (UniProt P38646 47-679); assay: peptide pull-down from Jurkat cell lysate, Western blot
T1 construct: Endogenous protein from Jurkat cells (a human cell line); also called Glucose-regulated protein 75; GRP75
T1 sequence (P38646 47-679 limits assumed): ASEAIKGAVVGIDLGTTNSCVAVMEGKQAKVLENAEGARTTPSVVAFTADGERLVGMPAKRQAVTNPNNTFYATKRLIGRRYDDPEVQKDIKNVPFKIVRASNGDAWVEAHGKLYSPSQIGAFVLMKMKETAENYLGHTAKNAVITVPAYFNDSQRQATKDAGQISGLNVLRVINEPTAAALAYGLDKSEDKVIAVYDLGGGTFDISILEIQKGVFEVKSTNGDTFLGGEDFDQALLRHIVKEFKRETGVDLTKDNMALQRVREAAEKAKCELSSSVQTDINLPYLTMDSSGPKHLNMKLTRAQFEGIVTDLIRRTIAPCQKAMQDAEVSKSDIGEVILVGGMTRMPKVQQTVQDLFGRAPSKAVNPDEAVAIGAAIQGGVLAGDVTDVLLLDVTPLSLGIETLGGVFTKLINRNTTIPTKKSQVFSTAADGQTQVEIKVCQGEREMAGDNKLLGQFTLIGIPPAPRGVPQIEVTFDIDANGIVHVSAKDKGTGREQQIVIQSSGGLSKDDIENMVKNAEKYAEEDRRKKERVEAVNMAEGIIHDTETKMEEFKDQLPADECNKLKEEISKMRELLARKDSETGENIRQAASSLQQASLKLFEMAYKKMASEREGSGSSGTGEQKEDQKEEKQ

E. coli DnaK protein = biological target: T2, E. coli DnaK protein (Escherichia coli, UniProt P0A6Y8 2-638); assay: ANTI-FLAG M2 pull-down from E. coli lysate, Western blot with anti-DnaK antibody
T2 construct: Endogenous protein from E. coli lysate; also called heat shock protein 70; Hsp70
T2 sequence (P0A6Y8 2-638 limits assumed): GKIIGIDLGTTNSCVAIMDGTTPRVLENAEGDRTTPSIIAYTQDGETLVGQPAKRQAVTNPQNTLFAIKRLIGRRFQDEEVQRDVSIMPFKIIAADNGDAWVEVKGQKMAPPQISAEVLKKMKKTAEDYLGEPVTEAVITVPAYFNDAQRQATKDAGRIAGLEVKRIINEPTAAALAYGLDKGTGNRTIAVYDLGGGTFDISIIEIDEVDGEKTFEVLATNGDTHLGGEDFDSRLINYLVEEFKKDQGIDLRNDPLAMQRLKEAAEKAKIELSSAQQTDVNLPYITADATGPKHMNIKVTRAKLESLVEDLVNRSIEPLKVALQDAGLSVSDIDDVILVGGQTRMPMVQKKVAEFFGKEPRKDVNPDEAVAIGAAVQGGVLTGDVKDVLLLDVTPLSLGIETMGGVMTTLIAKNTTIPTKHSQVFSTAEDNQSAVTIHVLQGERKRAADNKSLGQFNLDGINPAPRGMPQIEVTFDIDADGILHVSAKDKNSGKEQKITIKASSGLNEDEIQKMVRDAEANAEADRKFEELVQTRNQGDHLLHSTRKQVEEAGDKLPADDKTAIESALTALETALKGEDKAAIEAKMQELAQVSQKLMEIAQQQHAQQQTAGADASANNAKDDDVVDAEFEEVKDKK

Mortalin [2] = biological target: T1, Mortalin; assay: peptide pull-down from Jurkat cell lysate, Western blot with anti-mortalin antibody

Binder | binding result (Mortalin [1]) | binding result (E. coli DnaK protein) | binding result (Mortalin [2])
VGFPVAAVGFPVDYKDDDDK (also called SMR peptide; antagonist) [synthetic HIV-1 Nef SMRwt peptide (VGFPVAAVGFPVDYKDDDDK)] | binds | – | –
B1 | – | no binding (tested: 1 µg peptide with 1 mg E. coli lysate) | no binding
